Common to all, as to assay: MST; MST: 20 mM PBS pH 7.5, 300 mM NaCl, 0.05% Tween 20, 25 C, 50 nM RNA; EMSA: 20 mM Tris-HCl pH 7.5, 300 mM NaCl, 5 mM b-mercaptoethanol, 20% glycerol, agarose gel in Tris-glycine pH 8.0 (8.5 for FAM-RNA), 4 C
(In general: A gel shift assay detects complexes by their altered migration in electrophoresis.)

Data set [1] has as its target T1, KAE1;BUD32 N58R;CGI121;PCC1 (Arabidopsis thaliana;Arabidopsis …, UniProt O49653;Q94K14;Q6NMZ4;Q8GWD7 1-353;1-226;1-172;1-96, |N58R||).
T1 sequence 1: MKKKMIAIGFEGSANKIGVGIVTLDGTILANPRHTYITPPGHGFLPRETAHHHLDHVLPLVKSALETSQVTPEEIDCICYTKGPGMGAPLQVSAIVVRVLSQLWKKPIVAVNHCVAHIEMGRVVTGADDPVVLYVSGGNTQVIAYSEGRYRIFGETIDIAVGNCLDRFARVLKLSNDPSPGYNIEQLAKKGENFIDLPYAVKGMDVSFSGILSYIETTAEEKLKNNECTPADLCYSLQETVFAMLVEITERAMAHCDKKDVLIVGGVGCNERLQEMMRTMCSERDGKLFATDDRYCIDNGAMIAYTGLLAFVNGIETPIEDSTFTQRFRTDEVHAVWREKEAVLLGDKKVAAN
T1 sequence 2: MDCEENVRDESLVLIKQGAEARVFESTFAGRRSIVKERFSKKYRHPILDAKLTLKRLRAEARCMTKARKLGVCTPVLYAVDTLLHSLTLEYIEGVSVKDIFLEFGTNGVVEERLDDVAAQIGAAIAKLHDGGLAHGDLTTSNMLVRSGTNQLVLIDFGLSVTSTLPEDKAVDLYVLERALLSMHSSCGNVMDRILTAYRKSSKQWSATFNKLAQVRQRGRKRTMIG
T1 sequence 3: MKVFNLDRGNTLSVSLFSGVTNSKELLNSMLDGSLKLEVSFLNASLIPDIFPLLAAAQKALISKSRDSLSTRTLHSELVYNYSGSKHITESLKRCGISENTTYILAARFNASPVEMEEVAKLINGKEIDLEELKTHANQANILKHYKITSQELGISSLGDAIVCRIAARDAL
T1 sequence 4: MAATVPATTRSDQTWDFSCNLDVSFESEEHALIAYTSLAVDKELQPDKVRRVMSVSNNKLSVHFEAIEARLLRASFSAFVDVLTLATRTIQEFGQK
The note with it: protein: recombinant;recombinant;recombinant;recombinant; tags: none (6His on partner PCC1);;6His (C-term);6His (C-term); chain copies: 2;2;2;2; label: 5' 6-FAM; tRNA cloverleaf.

A further data set has as its target T2, BUD32;CGI121 (Arabidopsis thaliana;Arabidopsis …, UniProt Q94K14;Q6NMZ4 1-226;1-172, |).
T2 sequence 1: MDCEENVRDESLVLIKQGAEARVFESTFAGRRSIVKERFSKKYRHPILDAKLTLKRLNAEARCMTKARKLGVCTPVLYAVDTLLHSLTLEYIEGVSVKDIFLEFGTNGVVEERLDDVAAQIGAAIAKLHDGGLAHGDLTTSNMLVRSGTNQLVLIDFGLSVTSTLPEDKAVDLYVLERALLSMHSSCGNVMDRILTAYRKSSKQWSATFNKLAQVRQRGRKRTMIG
T2 sequence 2: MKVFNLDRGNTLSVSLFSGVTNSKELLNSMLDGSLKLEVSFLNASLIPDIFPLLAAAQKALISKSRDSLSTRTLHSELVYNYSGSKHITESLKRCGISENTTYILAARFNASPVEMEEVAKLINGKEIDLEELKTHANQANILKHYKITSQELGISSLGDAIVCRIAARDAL
The following applies: protein: recombinant;recombinant; tags: none (6His on partner CGI121);6His (C-term); copies: 1;1; label: 5' 6-FAM; tRNA cloverleaf.

For data set [2], the target named is T3, KAE1;BUD32 T162R;CGI121;PCC1 (Arabidopsis thaliana;Arabidopsis …, UniProt O49653;Q94K14;Q6NMZ4;Q8GWD7 1-353;1-226;1-172;1-96, |T162R||).
T3 sequence 1: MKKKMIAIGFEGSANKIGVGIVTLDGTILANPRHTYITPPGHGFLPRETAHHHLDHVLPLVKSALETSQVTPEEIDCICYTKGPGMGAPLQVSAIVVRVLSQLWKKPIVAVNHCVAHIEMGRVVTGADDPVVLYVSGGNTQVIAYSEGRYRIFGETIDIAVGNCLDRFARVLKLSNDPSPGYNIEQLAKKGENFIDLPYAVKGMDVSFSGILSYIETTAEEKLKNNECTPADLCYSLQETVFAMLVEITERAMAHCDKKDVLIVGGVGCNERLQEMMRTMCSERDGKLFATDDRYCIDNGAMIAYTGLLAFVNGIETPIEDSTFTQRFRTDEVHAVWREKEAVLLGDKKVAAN
T3 sequence 2: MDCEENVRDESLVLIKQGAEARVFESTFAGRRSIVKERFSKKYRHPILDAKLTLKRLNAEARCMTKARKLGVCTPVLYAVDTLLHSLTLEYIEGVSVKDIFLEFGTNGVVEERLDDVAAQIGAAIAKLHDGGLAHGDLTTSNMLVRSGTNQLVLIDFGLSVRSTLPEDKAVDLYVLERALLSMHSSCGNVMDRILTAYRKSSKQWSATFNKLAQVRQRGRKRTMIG
T3 sequence 3: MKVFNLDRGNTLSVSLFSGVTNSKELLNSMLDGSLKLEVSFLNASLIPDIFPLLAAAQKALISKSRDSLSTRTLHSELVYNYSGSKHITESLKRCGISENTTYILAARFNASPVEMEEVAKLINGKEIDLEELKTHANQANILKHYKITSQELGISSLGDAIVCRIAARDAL
T3 sequence 4: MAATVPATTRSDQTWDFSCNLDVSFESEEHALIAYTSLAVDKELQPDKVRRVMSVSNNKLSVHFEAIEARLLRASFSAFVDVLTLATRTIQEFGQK
The note with it: protein: recombinant;recombinant;recombinant;recombinant; tags: none (6His on partner PCC1);;6His (C-term);6His (C-term); chain copies: 2;2;2;2; label: 5' 6-FAM; tRNA cloverleaf.

The target in data set [3] is T4, KAE1 mutant-1;BUD32;CGI121;PCC1 (Arabidopsis thaliana;Arabidopsis …, UniProt O49653;Q94K14;Q6NMZ4;Q8GWD7 1-353;1-226;1-172;1-96, Y36R;I37K;T38R;P39R;P40R;G41W;H42D|||).
T4 sequence 1: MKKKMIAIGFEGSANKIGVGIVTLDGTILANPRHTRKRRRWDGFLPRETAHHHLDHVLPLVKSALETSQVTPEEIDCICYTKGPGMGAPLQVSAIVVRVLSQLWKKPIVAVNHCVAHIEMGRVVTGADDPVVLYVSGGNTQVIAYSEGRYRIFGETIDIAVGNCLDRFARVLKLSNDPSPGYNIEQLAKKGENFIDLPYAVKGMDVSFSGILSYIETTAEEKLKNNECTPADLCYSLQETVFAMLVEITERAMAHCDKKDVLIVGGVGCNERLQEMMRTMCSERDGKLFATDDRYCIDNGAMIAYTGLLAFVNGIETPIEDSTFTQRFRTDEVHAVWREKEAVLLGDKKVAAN
T4 sequence 2: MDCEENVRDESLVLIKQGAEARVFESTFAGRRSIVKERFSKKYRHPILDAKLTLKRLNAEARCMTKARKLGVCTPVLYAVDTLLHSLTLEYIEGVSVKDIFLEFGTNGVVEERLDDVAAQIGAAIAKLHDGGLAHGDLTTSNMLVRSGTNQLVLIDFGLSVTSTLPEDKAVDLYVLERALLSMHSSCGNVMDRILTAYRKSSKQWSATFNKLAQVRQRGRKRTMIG
T4 sequence 3: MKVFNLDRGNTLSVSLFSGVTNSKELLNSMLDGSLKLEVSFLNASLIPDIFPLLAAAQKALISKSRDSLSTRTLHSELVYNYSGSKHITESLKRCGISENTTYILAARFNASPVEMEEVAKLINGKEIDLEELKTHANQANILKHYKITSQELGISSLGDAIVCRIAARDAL
T4 sequence 4: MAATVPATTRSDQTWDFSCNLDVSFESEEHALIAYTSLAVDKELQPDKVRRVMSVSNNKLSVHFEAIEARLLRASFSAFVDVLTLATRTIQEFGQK
The following applies: protein: recombinant;recombinant;recombinant;recombinant; tags: ;none (6His on partner CGI121);6His (C-term);6His (C-term); chain copies: 2;2;2;2; label: 5' 6-FAM; tRNA cloverleaf.

B1: 5'-6FAM-tRNAArgCCU (structured_RNA)
RNA: GCGCCUGUAGCUCAGUGGAUAGAGCGUCUGUUUCCUAAGCAGAAGGUCGUAGGUUCGACCCCUACCUGGCGCGCCA
In general, Kd refers to the concentration at which binding is half-saturated. Turning to B1, the dissociation constant (Kd) in data set [1] worked out at 9.81 ± 2.73 µM; with BUD32;CGI121, 61.6 ± 15 µM; in data set [2] it was 10.5 ± 2.99 µM; in data set [3], 5.27 ± 1.2 µM.
